Measurements taken from article PMC7477763.

Target: B-Ub-MERS27-VME (UniProt P0CG48)
Sequence of UniProt P0CG48 (P0CG48 whole entry, looked up): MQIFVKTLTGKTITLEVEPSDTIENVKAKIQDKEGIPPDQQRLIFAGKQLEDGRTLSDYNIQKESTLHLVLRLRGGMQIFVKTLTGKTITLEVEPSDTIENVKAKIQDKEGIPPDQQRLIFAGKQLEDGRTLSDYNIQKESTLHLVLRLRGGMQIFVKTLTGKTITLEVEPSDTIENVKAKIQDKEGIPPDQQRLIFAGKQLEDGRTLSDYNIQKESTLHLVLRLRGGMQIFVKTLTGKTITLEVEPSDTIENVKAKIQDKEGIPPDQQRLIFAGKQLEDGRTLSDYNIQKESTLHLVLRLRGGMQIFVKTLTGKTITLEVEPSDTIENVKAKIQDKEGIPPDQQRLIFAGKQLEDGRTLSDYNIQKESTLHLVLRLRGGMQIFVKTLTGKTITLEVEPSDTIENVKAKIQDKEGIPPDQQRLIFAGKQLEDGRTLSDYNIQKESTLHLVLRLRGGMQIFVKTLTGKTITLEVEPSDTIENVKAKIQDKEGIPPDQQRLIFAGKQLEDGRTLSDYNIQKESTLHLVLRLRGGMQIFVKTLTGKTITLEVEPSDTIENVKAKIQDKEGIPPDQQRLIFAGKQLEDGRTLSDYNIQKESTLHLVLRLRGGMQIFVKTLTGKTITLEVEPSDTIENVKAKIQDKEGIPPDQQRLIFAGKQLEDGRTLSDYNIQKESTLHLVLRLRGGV

## Middle East respiratory syndrome papain-like protease (MERS PLpro), recombinant
  kobs/I: 22 144 ± 1431 M^–1 s^–1
